According to paper PMC4345311:

B1: PR10.1-8E-D3CR (structured_RNA)
RNA: GGGUUACCUAGGUGUAGAUGCUCUUAAGUGUAACUUCUCAUAACAUCCGGAGGCUUUUACUUCCGGGG
B2: PR10.1-8E-M1 (structured_RNA)
RNA: GGGUUACCUAGGUGUAGAUGCUCUUAAGUGUAACUUCUCAUAACAUCCGGAGGCACGUACUUCCGGGGACCUAAGUGACGUCUGAACUGCUUCGAA
B3: PR10.1-8E-M5 (structured_RNA)
RNA: GGGUUACCUAGGUGUAGUACGACUUAAGUGUAACUUCUCAUAACAUCCGGAGGCUUUUACUUCCGGGGACCUAAGUGACGUCUGAACUGCUUCGAA
B4: PR10.1-8E-M4 (structured_RNA)
RNA: GGGUUACCUAGGUGUAGAUGCUACGUAGUGUAACUUCUCAUAACAUCCGGAGGCUUUUACUUCCGGGGACCUAAGUGACGUCUGAACUGCUUCGAA
B5: PR10.1-8E-M6 (structured_RNA)
RNA: GGGUUACCUAGGUGUAGAUGCUCUUAUCACAAACUUCUCAUAACAUCCGGAGGCUUUUACUUCCGGGGACCUAAGUGACGUCUGAACUGCUUCGAA
B6: PR10.1-8E-M2 (structured_RNA)
RNA: GGGUUACCUAGGUGUAGAUGCUCUUAAGUGUAACUUCUCAUAACAUCCGGAGGCUUUUAGAAGGCCCGACCUAAGUGACGUCUGAACUGCUUCGAA
B7: PR10.1-8E-M9 (structured_RNA)
RNA: GGGUUACCUAGGUGUAGAUGCUCUUAAGUGUAACUUCUCAUAACAUCCGGAGGCUUUUACUUCCGGGGUGGAUCCAUUGGUCUGAACUGCUUCGAA
B8: PR10.1-8E-M8 (structured_RNA)
RNA: GGGUUACCUAGGUGUAGUGUGACUUAUCGUAAACUUCUCAUAACAUCCGGAGGCUUUUACUUCCGGGGACCUAAGUGACGUCUGAACUGCUUCGAA
B9: PR10.1-8E-M10 (structured_RNA)
RNA: GGCAGUGGAUCCAGUAGAUGCUCUUAAGUGUAACUUCUCAUAACAUCCGGAGGCUUUUACUUCCGGGGACCUAAGUGACGUCUGAACUGCUUCGAA

target: HIV-1 protease (PR), wild-type (HIV-1, UniProt P04585 489-587); assay: filter binding

Does B1 bind?
Result: no binding

Does B2 bind?
Result: no binding

Does B3 bind?
Result: no binding

Does B4 bind?
Result: no binding

Does B5 bind?
Result: no binding

Does B6 bind?
Result: no binding

Does B7 bind?
Result: no binding

With B8 as the binder, how does the Kd read?
Its Kd is 386 ± 63 nM.

Does B9 bind?
Result: no binding
